These results are taken from PMC7431413.

The target in the assay is recombinant tyrosine phosphorylated STAT3 dimer (pY705 STAT3-CF) (human) (UniProt P40763). The assay can be described thus: SEC; purified STAT3-CF co-expressed with the ABL1 kinase domain; immunoblot for pY705. (Size exclusion chromatography separates by hydrodynamic size, large species first.)

Broadly, the stoichiometry N is a count of units in the complex or per binding partner. In the case of “recombinant tyrosine phosphorylated STAT3 dimer (pY705 STAT3-CF) (from UniProt P40763 127-722) (domain or fragment)”, the stoichiometry N is 2.
